Test results reported in publication doi:10.1101/282715 (bioRxiv, 2018).

Biological target: the molecule itself
Assay: cryo-EM structure

B1: mouse TRPC4 (residues a.a. 1-758, excluding a.a. 759-974) (natural protein, UniProt Q9QUQ5 1-758, looked up)
chain: MAQFYYKRNVNAPYRDRIPLRIVRAESELSPSEKAYLNAVEKGDYASVKKSLEEAEIYFKININCIDPLGRTALLIAIENENLELIELLLSFNVYVGDALLHAIRKEVVGAVELLLNHKKPSGEKQVPPILLDKQFSEFTPDITPIILAAHTNNYEIIKLLVQKGVSVPRPHEVRCNCVECVSSSDVDSLRHSRSRLNIYKALASPSLIALSSEDPFLTAFQLSWELQELSKVENEFKSEYEELSRQCKQFAKDLLDQTRSSRELEIILNYRDDNSLIEEQSGNDLARLKLAIKYRQKEFVAQPNCQQLLASRWYDEFPGWRRRHWAVKMVTCFIIGLLFPVFSVCYLIAPKSPLGLFIRKPFIKFICHTASYLTFLFLLLLASQHIDRSDLNRQGPPPTIVEWMILPWVLGFIWGEIKQMWDGGLQDYIHDWWNLMDFVMNSLYLATISLKIVAFVKYSALNPRESWDMWHPTLVAEALFAIANIFSSLRLISLFTANSHLGPLQISLGRMLLDILKFLFIYCLVLLAFANGLNQLYFYYEETKGLSCKGIRCEKQNNAFSTLFETLQSLFWSIFGLINLYVTNVKAQHEFTEFVGATMFGTYNVISLVVLLNMLIAMMNNSYQLIADHADIEWKFARTKLWMSYFEEGGTLPTPFNVIPSPKSLWYLVKWIWTHLCKKKMRRKPESFGTIGRRAADNLRRHHQYQEVMRNLVKRYVAAMIREAKTEEGLTEENVKELKQDISSFRFEVLGLLRGSK
stoichiometry N: 4
